Measured values reported in patent publication US20180271960A1, “METHOD TO TREAT CANCER USING ARGININE DELPETOR AND ORNITHINE DECARBOXYLASE (ODC) INHIBITOR” (Bio-Cancer Treatment International Ltd., priority 2015, published 2018).
“Also recorded” adds a separate entry of the source.

What was measured:
Assay type in all cases: cell-based
[1] = system: H358 lung adenocarcinoma cell line; assay: MTT assay, growth inhibition of H358 cell line; details: 48 h and 72 h at 10 ng/μl
Protocol: (§1) The inhibition ratio (IR) and the half maximal inhibitory concentration (IC50) values are determined by a MTT assay.

[2] = system: HCC827 lung adenocarcinoma cell line; assay: MTT assay, growth inhibition of HCC827 cell line; details: 48 h and 72 h at 0.5 ng/μl and 10 ng/μl
Protocol: as §1

[3] = system: H1650 lung adenocarcinoma cell line; assay: MTT assay, growth inhibition of H1650 cell line; details: 48 h and 72 h at 10 ng/μl
Protocol: as §1

[4] = system: HCC2935 lung adenocarcinoma cell line; assay: MTT assay, growth inhibition of HCC2935 cell line; details: 72 h at 10 ng/μl only
Protocol: as §1

[5] = system: HCC4006 lung adenocarcinoma cell line; assay: MTT assay, growth inhibition of HCC4006 cell line; details: 48 h and 72 h at 0.5 ng/μl and 10 ng/μl
Protocol: as §1

[6] = system: lung adenocarcinoma cell lines (H23, H358, HCC827, H1650, H1975, HCC2935, HCC4006, and A549); assay: MTT assay on the panel of eight lung adenocarcinoma cell lines; details: all tested cell lines; MTT assay after treatment for 72 h
Protocol: as §1

[7] = system: lung adenocarcinoma cell lines (H358, H1650, H1975, and HCC4006); assay: Intracellular arginine level by arginine ELISA kit; details: all examined cell lines; IC50 concentrations and 0.1 μg/μl
Protocol: In one example embodiment, four lung adenocarcinoma cell lines (i.e. H358, H1650, H1975, and HCC4006), obtained from ATCC, are treated with PEG-BCT-100 at IC50 concentrations and 0.1 μg/μl. Internalization of PEG-BCT-100 by lung adenocarcinoma cells are assessed by immunocytochemistry using anti-PEG-antibodies. Detection is done using anti-rabbit Alexa 488 conjugated secondary antibody and visualization is performed using a fluorescent microscope. The PEG-BCT-100 treated lung adenocarcinoma cells are lysed in RIPA buffer for determination of arginine level by K7733 arginine ELISA kit from Immunodiagnostik.

B1: PEG-BCT-100: pegylated recombinant human arginase I (SEQ ID NO.1, or SEQ ID NO.3 with six histidines), about 6-12 PEG molecules per arginase (protein, UniProt P05089 1-322, looked up)
Arginase-1: MSAKSRTIGIIGAPFSKGQPRGGVEEGPTVLRKAGLLEKLKEQECDVKDYGDLPFADIPNDSPFQIVKNPRSVGKASEQLAGKVAEVKKNGRISLVLGGDHSLAIGSISGHARVHPDLGVIWVDAHTDINTPLTTTSGNLHGQPVSFLLKELKGKIPDVPGFSWVTPCISAKDIVYIGLRDVDPGEHYILKTLGIKYFSMTEVDRLGIGKVMEETLSYLLGRKKRPIHLSFDVDGLDPSFTPATGTPVVGGLTYREGLYITEEIYKTGLLSGLDIMEVNPSLGKTPEEVTRTVNTAVAITLACFGLAREGNHKPIDYLNPPK
modifications: PEG, about 6-12 per arginase; optional His6 tag
With B1 the “growth inhibition effect (cell proliferation)” value [1] was “inhibits H358 lung adenocarcinoma cell line proliferation more effectively than ADI”, the “growth inhibition effect (cell proliferation)” value [2] was “inhibits HCC827 lung adenocarcinoma cell line proliferation more effectively than ADI” and the “growth inhibition effect (cell proliferation)” value [3] was “inhibits H1650 lung adenocarcinoma cell line proliferation more effectively than ADI”. The “growth inhibition effect (cell proliferation / toxicity)” value [4] was “induces toxicity in HCC2935 lung adenocarcinoma cell line”, the “growth inhibition effect (cell proliferation)” value [5] was “inhibits HCC4006 lung adenocarcinoma cell line proliferation more effectively than ADI” and the “cytotoxicity (cell viability)” value [6] was “induces cytotoxicity in all tested lung adenocarcinoma cell lines”. For the same molecule, the “intracellular (cytosolic) arginine level” value [7] was “depletes intracellular arginine significantly; also recorded: able to deplete cytosolic arginine level significantly”.
